What was measured:
[1] = target: giantin (human (endogenous in HeLa, LNCaP, PC-3, liver tissue)) (UniProt Q14789); test: Western blot of lysates; details: remark: other sources report otherwise
[2] = target: giantin (rat hepatocytes) (rat (endogenous in primary hepatocytes)); test: Western blot of lysates

Row | stoichiometry N [1] | stoichiometry N [2] | Substance
1 | 2 | – | giantin, Q14789 1-3259
2 | – | 2 | giantin (rat hepatocytes) (natural protein)
